According to the RNAGym collection of RNA variant scans (doi:10.7554/elife.80360):

B1: HDV Ribozyme (parent)
chain: GGCCGGCAUGGUCCCAGCCUCCUCGCUGGCGCCGGCUGGGCAACAUUCCGAGGGGACCGUCCCCUCGGUAAUGGCGAAUGGGACCCA

Variants of: B1
Assay: self-cleavage, relative activity (ratio to wild type); higher = more cleavage; co-transcriptional

Variant | self-cleavage
U47A G50C | 0.855
G10C G29U | 0.0707
G34U G53C | 0.136
G39A U72C | 0.135
G29C G80U | 0.0953
G29U C85G | 0
G5C G17U | 0
C21U G29C | 0.0773
U9G C41G | 0.831
G55U G67C | 1.06
C14G C22A | 0
U9C U12C | 0.119
C36U U69G | 0.519
C22G A45U | 0.0415
U60A C85U | 0.912
G35U C84A | 0.308
G31C A70G | 0.285
C21G C75U | 0.0378
C18G C21A | 0
G5C C66G | 0.151
G40C A56C | 0.197
G55A U69A | 0.857
U12C G73C | 0.116
C75A C86A | 0.219

Variant | self-cleavage
G31A U79C | 0.11
G39U C57A | 0.941
U20G C30A | 0.0378
G25U C86U | 0.108
C62G A83U | 0.17
C49U A51G | 1.01
C58G G74A | 0.499
G31U A71C | 0.0369
C19G C63U | 0.0978
C21A G67A | 0.0712
C4G A70C | 0.244
C24G G55A | 0.166
G38U G54C | 0.4
G6U C36A | 0.133
G2A C24G | 0.0378
G50U U65A | 0.981
C13A G52C | 0.383
U20C C62G | 0.0665
G35C A56G | 0.128
C7U C24G | 0.0739
U20A U47A | 0.104
U27A A51G | 0.997
G29A U47G | 0.0978
G31C C61U | 0.262

Variant | self-cleavage
C7A G28A | 0.123
A51C G73A | 0.383
G29U A45U | 0
C7G A8G | 0.519
C4A G35C | 0.086
C4A C22A | 0.0332
C64G C85U | 1.17
G40U A45C | 0.295
G1A G52U | 0.162
C24A U47A | 0.554
U20C G67U | 0.175
U9G G40A | 1.29
C26U A45C | 0.776
G28A G39U | 0.0692
C26U U46C | 0.897
U46A U47A | 0.867
C22G G29C | 0.0536
C21A C61G | 0.0997
C13U A71C | 0.639
C64G G81C | 0.208
G39A C44G | 0.108
G35C U46A | 0.101
U79G C85A | 0.415
G1C C86U | 0.262

Variant | self-cleavage
U27G A70U | 0.519
C13A U20G | 0.0594
C30A C61G | 0.583
A51G G68A | 0.901
C44U C58U | 0.755
C18U U23A | 0.519
U20C A42C | 0.158
G10A A43G | 0.217
C22A G50A | 0.235
G5U A87C | 0.277
U27A C36G | 0.298
C18U U20G | 0.277
G5C C36U | 0.0978
C32A G38U | 0.181
C57G G73U | 0.464
G40C U47C | 0.243
G50U U60G | 0.831
G17C G52A | 0.415
G17U G53U | 0.42
G1U G31A | 0.364
A77G C85U | 1.04
A16U C61A | 1.11
G53C G59C | 0.958
C41U A83G | 0.712

Variant | self-cleavage
C58A G76A | 1.02
U37G G76C | 0.142
G17U C75A | 0.198
G38C C64A | 0.228
G52A G53A | 0.89
U27A C84G | 0.957
C26G G55A | 0.884
G5C U47A | 0.158
G2C C49G | 0.145
A8G U79G | 0.332
U72G G73A | 0.707
C3U C26U | 0.65
G2C A83C | 0.0302
C22G G67U | 0.0519
G17C C32G | 0
G59U G73A | 0.644
A16C G68C | 0.748
C26G C33G | 0.285
U9G A56G | 0.895
A8C A45G | 0.615
C22A A45G | 0.225
G6A U65C | 0.554
A56G C66U | 0.937
C24A A71C | 0.38

Variant | self-cleavage
C22G G40C | 0.0665
G74C C84G | 0.0875
U9C G67A | 1.12
C30A A77C | 0.0852
C4A C33U | 0.104
C44A A51G | 0.898
G11C C14G | 0
C36U U79A | 0.253
C30A C66G | 0.675
G29C U37G | 0.128
C3U C75A | 0.101
A45G G82U | 0.475
C13A A45C | 0.0707
G34A G81A | 0.128
U60C C66U | 0.997
C57G G67A | 0.909
C26G C84A | 1.09
G28A G50A | 0.0906
A8G C62A | 1.03
C44U A77G | 0.923
C49U C86U | 0.882
U27A C62U | 0.935
G28A G82C | 0.0959
G55U C62A | 0.973

Variant | self-cleavage
G34C C36A | 0.0707
A45U G55C | 0.956
C15G A77U | 0.158
C57G A70G | 0.856
U60A G81U | 0.151
G28U U37A | 0.0773
U72C G73C | 0.208
C41U A87U | 1
G34A G80A | 0.0241
G6U U72A | 0.0665
C21U U69A | 0.148
U60A G74A | 0.422
C4G C32G | 0
C24A G29U | 0.0369
C21G C85U | 0
C15U U47G | 0.89
C48G G55U | 0.972
C26U U27C | 1.29
U9C G10C | 0.767
A16C C84A | 0.655
U79C G82C | 0.222
G53U C64A | 0.777
C7U A42U | 0.196
